Where a chain is given by its changes, count along the chain named.

Here are results for 4 molecules from patent US20160046707A1 (EISAI R AND D MANAGEMENT, published 2016).

T1: recombinant human CCL16 (human, UniProt O15467 24-120)
T1 construct: also called HCC-4
T1 sequence (looked up): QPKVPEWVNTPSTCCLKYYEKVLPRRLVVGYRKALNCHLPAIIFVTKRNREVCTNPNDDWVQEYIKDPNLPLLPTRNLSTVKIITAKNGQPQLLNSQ

T2: recombinant human CCL5 (human, UniProt P13501 24-91)
T2 construct: also called Rantes
T2 sequence (looked up): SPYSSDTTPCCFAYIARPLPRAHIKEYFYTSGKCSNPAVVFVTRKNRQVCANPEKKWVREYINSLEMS

T3: recombinant human CCL22 (human, UniProt O00626 25-93)
T3 construct: also called MDC
T3 sequence (looked up): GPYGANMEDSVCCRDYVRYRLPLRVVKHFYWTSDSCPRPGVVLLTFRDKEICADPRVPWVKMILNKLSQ

T4: recombinant human XCL1 (human, UniProt P47992 23-114, limits assumed)
T4 construct: also called Ltn
T4 sequence (looked up): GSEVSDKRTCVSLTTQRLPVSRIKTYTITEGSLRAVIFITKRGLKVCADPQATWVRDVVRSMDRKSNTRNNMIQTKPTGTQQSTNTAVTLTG

T5: recombinant human CXCL8 (human, UniProt P10145 28-99)
T5 construct: also called IL-8
T5 sequence (looked up): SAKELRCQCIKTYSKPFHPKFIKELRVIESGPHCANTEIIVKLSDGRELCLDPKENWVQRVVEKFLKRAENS

B1: chimeric 36F7C10 antibody (36F7C10-hFc) (antibody, V domains shown)
VH: QVQLQQPGAELVKPGASVKMSCKASGYTFTNYWMHWVKQRPGQGLEWIGVIDPSDSYTTYNQKFKGKATLTVDTSSSTAYMQLSSLTSEDSAVYYCTRGNYGVDYAMDYWGQGTSVTVSS
VL: DIQMTQSPASLSASVGETVTITCGASENIYGALNWYQRKQGKSPQLLIYGATNLADGMSSRFSGSGSGRQYSLKISSLHPDDVATYYCQNVLITPYTFGGGTKLEIK
notes: also called chimeric 36F710; Chimeric MAb
B2: humanized anti-human CCL20 antibody 36LK3/36HC2 (antibody, human IgG1, kappa, V domains shown)
VH: QVQLVQSGAEVKKPGASVKVSCKASGYTFTNYWMHWVRQAPGQGLEWMGVIDPSDSYTTYAQKFQGRVTMTVDTSTSTVYMELSSLRSEDTAVYYCARGNYGVDYAMDYWGQGTLVTVSS
VL: DIQMTQSPSSLSASVGDRVTITCGASENIYGALNWYQRKPGKAPKLLIYGATNLADGVPSRFSGSGSGRDYTLTISSLQPEDFATYYCQNVLITPYTFGQGTKLEIKR
notes: expressed in HEK293 cells; also called HC2/LK3; HC2LK3
B3: humanized anti-human CCL20 antibody 36LC3/36HC2 (antibody, human IgG1, kappa, V domains shown)
VH: B2 VH
VL: B2 VL with G24R, R38Q, D70Q, T72S, Q100G
notes: expressed in HEK293 cells; also called HC2/LC3; HC2LC3
B4: mouse anti-human CCL20 monoclonal antibody 36F7C10 (antibody, V domains shown)
VH: B1 VH
VL: B1 VL
notes: Mouse hybridoma antibody; also called MouseMAb; parental mouse clone 36F7C10

T7 sequence (Q99616 24-98 limits assumed): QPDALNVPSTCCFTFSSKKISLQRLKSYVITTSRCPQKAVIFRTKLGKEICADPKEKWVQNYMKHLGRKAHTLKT

One assay has as its target T1, recombinant human CCL16. Kind of assay: SPR (Biacore): antibody captured on anti-human Fc, 100 nM chemokine injected; ratio = chemokine binding level over antibody capture level. As to the method: We used Biacore™ analysis to test whether HC2/LK3 and HC2/LC3 cross-react with CCL16. Monoclonal mouse anti-human Fc was immobilized on all four flow cells of a CM5 chip at a flow rate of 25 μl/min with HBS-EP buffer containing 0.2 mg/mL BSA. Subsequently, 50 μl of a 1 μg/ml solution of chimeric, HC2/LC3, or HC2/LK3 antibody in HBS-EP buffer with 0.2 mg/ml BSA was injected over flow cells 2, 3, and 4, respectively. 150 μl of a 100 nM solution of CCL20 or CCL16 in HBS-EP buffer (or buffer alone) with 0.2 mg/ml BSA was then injected over all four flow cells at a flow rate of 40 μl/min. Dissociation followed for 20 min. Flow cell 1 (anti-human Fc antibody alone) was used as a reference for all flow cells.
Under these conditions, human CCL20 bound to the chimeric (FIG. 13A), HC2/LC3 (FIG. 13B), and HC2/LK3 (FIG. 13B) antibodies captured on the chip with similar strength.
As for B1, the ReqCk/ReqAb ratio is 0.006.
For the molecule B2, the ReqCk/ReqAb ratio amounted to 0.006.
Still for that read-out and setting: the value for B3 was 0.005.

The target in a further assay is T6, human CCL20-secreted alkaline phosphatase (SEAP) fusion (human, UniProt P78556 27-96).
T6 construct: also called hCCL20; human CCL20-SEAP; not shown: secreted alkaline phosphatase (SEAP), cDNA from pSEAP-Enhancer vector (Clontech)
T6 sequence (P78556 27-96): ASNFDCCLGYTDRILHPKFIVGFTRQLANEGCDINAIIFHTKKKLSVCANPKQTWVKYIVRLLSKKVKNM
Kind of assay: SPR (Biacore), CCL20-SEAP captured by anti-SEAP, antibody injected (bivalent format), 1:1 Langmuir. As to the method:
We also used surface plasmon resonance (Biacore™) analysis to test whether HC2/LC3 and HC2/LK3 can bind to mouse, cynomolgus, or rhesus macaque CCL20 orthologs. Monoclonal mouse anti-human placental alkaline phosphatase was immobilized on all four flow cells of a CM5 chip at a flow rate of 25 μl/min. 25 μl of a 2 nM solution of human, rhesus, cynomolgus, or mouse CCL20-SEAP in HBS-EP buffer was injected over flow cell 2, 3, or 4. For antibody binding, 240 μl of 0-80 nM dilutions of HC2/LC3, HC2/LK3, or 2F5-5 MAb in HBS-EP buffer (or buffer alone) was injected over all four flow cells at a flow rate of 50 μl/min. Dissociation followed for 45 min. Flow cell 1 (anti-SEAP alone) was used as a reference for all flow cells. Regeneration of the flow cells was performed with 10 mM glycine at pH 2.25. Due to regeneration effects on the capturing capacity of the chips, antibody injections were performed sequentially from low to high concentration. Data fitting was performed using a 1:1 Langmuir model.
In contrast, chimeric, HC2/LC3, and HC2/LK3 antibodies effectively bound to human, rhesus, and cynomolgus CCL20 (Table 17).
Background: In SPR one partner is held on a chip, and binding of the other changes the refractive index at the surface.
As a reminder, the koff is a measure of how fast the partners let go of each other. A higher koff goes with a short-lived complex. The kon is a measure of how fast the partners come together. Low readings indicate slower complex formation, high ones faster complex formation. B1 showed a Kd of 7.16 pM, a koff of 2.08e-05 s⁻¹ and a kon of 2.9e+06 M⁻¹ s⁻¹.
The matching figures for B2: 11.8 pM, 3.39e-05 s⁻¹ and 2.88e+06 M⁻¹ s⁻¹.
For B3, in that order: 4.71 pM, 2.68e-05 s⁻¹ and 5.69e+06 M⁻¹ s⁻¹.

The next assay addresses T2, recombinant human CCL5. Description: ELISA, plate-bound chemokine (1 ug/ml), antibody 10 ug/ml, OD450. As to the method: (§1) The wells of a 96-well plate were coated with 1 μg/ml of the recombinant human chemokines in PBS (−). After overnight incubation at 4° C., the wells were blocked with 1× Block-Ace (Dainippon Sumitomo Pharma, UK-B80) for 1 hour at room temperature. After washing twice with 0.02% Tween 20/PBS (−), we added 50 μl of 10 μg/ml purified 36F7C10, chimeric 36F710, HC2/LK3, or HC2/LC3 in 0.02% Tween 20/PBS (−) to each well. The wells were incubated for 1 hour at room temperature and washed three times as described in Example 3. […] After washing five times, a TMBZ (3,3′,5,5′-tetramethylbenzidine) solution (1%, in N,N-Dimethylformamide) was added to the wells and incubated for 15-30 minutes. The reaction was stopped by adding an equal volume of a 2 M H₂SO₄ stopping solution, and the optical density was read at 450 nm by ARVO (PerkinElmer).
On the technique in general: In an ELISA, binding on a coated surface is turned into a signal by an enzyme label.
On to B4, for which the binding result is “no binding (tested: 10 ug/ml)”.
Regarding B1, the binding result is “no binding (tested: 10 ug/ml)”.
Same read-out and setting: the value for B2 was “no binding (tested: 10 ug/ml)”; that for B3 was “no binding (tested: 10 ug/ml)”.

The next assay concerns the target T3, recombinant human CCL22. Described as above. As to the method: as §1
In the case of B4, the binding result was “no binding (tested: 10 ug/ml)”.
B1: the binding result is reported as “no binding (tested: 10 ug/ml)”.
Same read-out and setting: the value for B2 was “no binding (tested: 10 ug/ml)”.
On the same count and under the same terms, the value for B3 was “no binding (tested: 10 ug/ml)”.

A further assay concerns the target T4, recombinant human XCL1. Described as above. As to the method: as §1
On to B4, for which the binding result was “no binding (tested: 10 ug/ml)”.
For the molecule B1, the binding result is recorded as “no binding (tested: 10 ug/ml)”.
Same read-out and setting: the value for B2 was “no binding (tested: 10 ug/ml)”.
Regarding B3, the binding result was “no binding (tested: 10 ug/ml)”.

The next assay deals with T5, recombinant human CXCL8. The assay is described as above. As to the method:
as §1
For the molecule B4, the binding result is given as “no binding (tested: 10 ug/ml)”.
For the molecule B1, the binding result is listed as “no binding (tested: 10 ug/ml)”.
On the same count and under the same terms, in the case of B2 it was “no binding (tested: 10 ug/ml)”; in that of B3, “no binding (tested: 10 ug/ml)”.

The next assay has as its target T7, recombinant human CCL13 (human, UniProt Q99616 24-98).
T7 construct: also called MCP-4
The description is as above. As to the method:
as §1
In the case of B4, the binding result was “no binding (tested: 10 ug/ml)”.
Still for that read-out and setting: in the case of B1 it was “no binding (tested: 10 ug/ml)”; in that of B2, “no binding (tested: 10 ug/ml)”; in that of B3, “no binding (tested: 10 ug/ml)”.

The target of another assay is T8, recombinant human CXCL12 (human, UniProt P48061-2 22-89).
T8 construct: also called SDF-1/PBSF
T8 sequence (P48061 22-89 limits assumed): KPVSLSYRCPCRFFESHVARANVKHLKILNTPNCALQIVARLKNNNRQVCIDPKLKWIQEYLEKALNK
Described as above. As to the method: as §1
Consider B4, for which the binding result is listed as “no binding (tested: 10 ug/ml)”.
On to B1, for which the binding result is “no binding (tested: 10 ug/ml)”.
Consider B2, for which the binding result is recorded as “no binding (tested: 10 ug/ml)”.
Still for that read-out and setting: in the case of B3 it was “no binding (tested: 10 ug/ml)”.

The target of the next assay is T9, recombinant human CCL11 (human, UniProt P51671 24-97).
T9 construct: also called Eotaxin
T9 sequence (P51671 24-97 limits assumed): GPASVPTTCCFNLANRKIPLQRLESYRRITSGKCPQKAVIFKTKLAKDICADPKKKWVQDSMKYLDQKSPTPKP
The assay is described as above. As to the method: as §1
Regarding B4, the binding result is “no binding (tested: 10 ug/ml)”.
Same read-out and setting: the value for B1 was “no binding (tested: 10 ug/ml)”; that for B2 was “no binding (tested: 10 ug/ml)”; that for B3 was “no binding (tested: 10 ug/ml)”.
